# Data as given in US20260125477A1.
# Key:
# [1] = molecular target: human B7-H3 on B7-H3+ cells (human) (UniProt Q5ZPR3); assay: FACS, HepG2 cells (B7-H3+ tumor cells)
# [2] = molecular target: human B7-H3 on B7-H3+ cells (human) (UniProt Q5ZPR3); assay: FACS, SK-OV-3 cells (B7-H3+ tumor cells)
# [3] = molecular target: human B7-H3 on B7-H3+ cells (human) (UniProt Q5ZPR3); assay: FACS, NCI-H520 cells (B7-H3+ tumor cells)
# [4] = molecular target: human B7-H3 on B7-H3+ cells (human) (UniProt Q5ZPR3); assay: FACS, HUVEC cells (human B7-H3-expressing)
# [5] = molecular target: human B7-H3 on B7-H3+ cells (human) (UniProt Q5ZPR3); assay: FACS, NCI-H520 cells (B7-H3+ tumor cells) [Continued) D]
# [6] = molecular target: human B7-H3 on B7-H3+ cells (human) (UniProt Q5ZPR3); assay: FACS, mature human dendritic cells derived from PBMC (B7-H3+ normal cells)
# [7] = molecular target: human B7-H3 on B7-H3+ cells (human) (UniProt Q5ZPR3); assay: FACS, A549 cells (B7-H3+ tumor cells)
# [8] = molecular target: human B7-H3 on B7-H3+ cells (human) (UniProt Q5ZPR3); assay: FACS, MCF-7 cells (B7-H3+ tumor cells)
# [9] = molecular target: human B7-H3 on B7-H3+ cells (human) (UniProt Q5ZPR3); assay: FACS, human dermal fibroblasts (B7-H3+ normal cells)
# [10] = molecular target: human B7-H3 on B7-H3+ cells (human) (UniProt Q5ZPR3); assay: FACS, NCI-H520 cells (B7-H3+ tumor cells) [Continued) C]
# [11] = molecular target: human B7-H3 on B7-H3+ cells (human) (UniProt Q5ZPR3); assay: FACS, human prostate smooth muscle cells (B7-H3+ normal cells)
# human B7-H3 on B7-H3+ cells (human), sequence (Q5ZPR3 29-534): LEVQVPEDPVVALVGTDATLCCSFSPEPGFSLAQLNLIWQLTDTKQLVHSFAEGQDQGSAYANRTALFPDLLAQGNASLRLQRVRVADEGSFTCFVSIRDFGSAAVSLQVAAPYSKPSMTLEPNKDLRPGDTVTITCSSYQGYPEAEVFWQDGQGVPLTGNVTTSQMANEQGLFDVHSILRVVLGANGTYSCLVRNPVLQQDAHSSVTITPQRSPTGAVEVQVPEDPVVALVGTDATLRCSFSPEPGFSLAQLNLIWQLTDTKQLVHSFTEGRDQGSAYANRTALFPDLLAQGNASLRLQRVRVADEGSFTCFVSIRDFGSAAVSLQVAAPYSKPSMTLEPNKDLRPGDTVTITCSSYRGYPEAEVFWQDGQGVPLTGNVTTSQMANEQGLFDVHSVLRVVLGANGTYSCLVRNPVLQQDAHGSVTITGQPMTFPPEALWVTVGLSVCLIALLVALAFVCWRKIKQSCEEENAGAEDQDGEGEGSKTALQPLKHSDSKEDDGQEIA
Binder,EC50 (read off the curve) [1] [µg/mL],EC50 (read off the curve) [2] [µg/mL],EC50 (read off the curve) [3] [µg/mL],EC50 (read off the curve) [4] [µg/mL],EC50 (read off the curve) [5] [µg/mL],EC50 (read off the curve) [6] [µg/mL],EC50 (read off the curve) [7] [µg/mL],EC50 (read off the curve) [8] [µg/mL],EC50 (read off the curve) [9] [µg/mL],EC50 (read off the curve) [10] [µg/mL],EC50 (read off the curve) [11] [µg/mL]
"10D7 (antibody, human IgG1, kappa, V domains shown) VH: QVQLVQSGPGLVKPSETLSLTCTVSGGSISRSSYYWGWIRQPPGKGLEWIGNIFYAGSTYYNPSLKSRVTISVDTSKNQFSLKLSSVTAADTAVYYCARRITGTTGWFDPWGQGTLVTVSS VL: DIQLTQSPSSLSASVGDRVTITCRASQGIRNDLGWYQQKPGKAPKLLIYAASTLQSGVPSRFSGSGSGTDFTLTISSLQPEDFATYYCLQDYNYPRTFGQGTKVEIKR",0.4,0.7,0.3,0.05,0.03,0.06,–,–,–,–,–
"6B5 (antibody, human IgG1, kappa, V domains shown) VH: QVQLVESGPGLVKPSQTLSLTCTVSDGSISSGGYYWSWIRQHPGKGLEWIGYIYYSGGTYYSPSLKSRVTISVDTSKNQFSLKLTSVTAADTAVYYCARRAGYSSSFDSWGQGILVTVSS VL: EIVLTQSPLSLPVTPGEPASISCRSSQSLLYSNGYTYLDWYLQKPGQSPQFLIYLGFNRASGVPDRFSGSGSGTDFTLKISRVEAEDVGVYYCMQGLQTPYTFGQGTKLEIKR",0.6,0.7,0.3,0.4,–,1,2,0.4,0.4,0.1,0.3
"6B5-Mut (antibody, human IgG1, kappa) heavy: QVQLVESGPGLVKPSQTLSLTCTVSDGSISSGGYYWSWIRQHPGKGLEWIGYIYYSGGTYYSPSLKSRVTISVDTSKNQFSLKLTSVTAADTAVYYCARRAGYSSSFDSWGQGILVTVSSASTKGPSVFPLAPSSKSTSGGTAALGCLVKDYFPEPVTVSWNSGALTSGVHTFPAVLQSSGLYSLSSVVTVPSSSLGTQTYICNVNHKPSNTKVDKRVEPKSCDKTHTCPPCPAPELVGGPSVFLLPPKPKDTLMISRTPEVTCVVVDVSHEDPEVKFNWYVDGVEVHNAKTKPPEEQYNSTLRVVSVLTVLHQDWLNGKEYKCKVSNKALPAPIEKTISKAKGQPREPQVYTLPPSREEMTKNQVSLTCLVKGFYPSDIAVEWESNGQPENNYKTTPLVLDSDGSFFLYSKLTVDKSRWQQGNVFSCSVMHEALHNHYTQKSLSLSPGK light: EIVLTQSPLSLPVTPGEPASISCRSSQSLLYSNGYTYLDWYLQKPGQSPQFLIYLGFNRASGVPDRFSGSGSGTDFTLKISRVEAEDVGVYYCMQGLQTPYTFGQGTKLEIKRTVAAPSVFIFPPSDEQLKSGTASVVCLLNNFYPREAKVQWKVDNALQSGNSQESVTEQDSKDSTYSLSSTLTLSKADYEKHKVYACEVTHQGLSSPVTKSFNRGEC",–,–,–,0.4,–,–,–,–,–,0.2,–

# Next, values leading:
EC50 (read off the curve) [1] [µg/mL],EC50 (read off the curve) [2] [µg/mL],EC50 (read off the curve) [3] [µg/mL],EC50 (read off the curve) [4] [µg/mL],EC50 (read off the curve) [5] [µg/mL],EC50 (read off the curve) [6] [µg/mL],EC50 (read off the curve) [7] [µg/mL],EC50 (read off the curve) [8] [µg/mL],EC50 (read off the curve) [9] [µg/mL],EC50 (read off the curve) [10] [µg/mL],EC50 (read off the curve) [11] [µg/mL],Binder
–,–,0.3,–,–,0.3,–,–,0.2,–,0.1,"Enoblituzumab (antibody, human IgG1, kappa, V domains shown) VH: EVQLVESGGGLVQPGGSLRLSCAASGFTFSSFGMHWVRQAPGKGLEWVAYISSDSSAIYYADTVKGRFTISRDNAKNSLYLQMNSLRDEDTAVYYCGRGRENIYYGSRLDYWGQGTTVTVSS VL: DIQLTQSPSFLSASVGDRVTITCKASQNVDTNVAWYQQKPGKAPKALIYSASYRYSGVPSRFSGSGSGTDFTLTISSLQPEDFATYYCQQYNNYPFTFGQGTKLEIKR"
–,–,–,0.05,0.03,–,–,–,–,–,–,"10D7-Mut (antibody, human IgG1, kappa) heavy: QVQLVQSGPGLVKPSETLSLTCTVSGGSISRSSYYWGWIRQPPGKGLEWIGNIFYAGSTYYNPSLKSRVTISVDTSKNQFSLKLSSVTAADTAVYYCARRITGTTGWFDPWGQGTLVTVSSASTKGPSVFPLAPSSKSTSGGTAALGCLVKDYFPEPVTVSWNSGALTSGVHTFPAVLQSSGLYSLSSVVTVPSSSLGTQTYICNVNHKPSNTKVDKRVEPKSCDKTHTCPPCPAPELVGGPSVFLLPPKPKDTLMISRTPEVTCVVVDVSHEDPEVKFNWYVDGVEVHNAKTKPPEEQYNSTLRVVSVLTVLHQDWLNGKEYKCKVSNKALPAPIEKTISKAKGQPREPQVYTLPPSREEMTKNQVSLTCLVKGFYPSDIAVEWESNGQPENNYKTTPLVLDSDGSFFLYSKLTVDKSRWQQGNVFSCSVMHEALHNHYTQKSLSLSPGK light: DIQLTQSPSSLSASVGDRVTITCRASQGIRNDLGWYQQKPGKAPKLLIYAASTLQSGVPSRFSGSGSGTDFTLTISSLQPEDFATYYCLQDYNYPRTFGQGTKVEIKRTVAAPSVFIFPPSDEQLKSGTASVVCLLNNFYPREAKVQWKVDNALQSGNSQESVTEQDSKDSTYSLSSTLTLSKADYEKHKVYACEVTHQGLSSPVTKSFNRGEC"
